Test results from patent US20250019439A1 (Adimab, published 2025).

Assays:
ADI-70330 = biological target: T1, ADI-70330; test: SPR Carterra avidity, yeast anti-ID
T1 construct: anti-CD3 antibody made in CHO cells, captured by anti-human Fc
Procedure, shortened: (§1)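 Kinetic constants come from a 1:1 binding-model fit of double-referenced, drift-corrected sensorgrams. Anti-CD3 antibodies (100 nM) were captured via immobilized anti-human Fc, and anti-idiotype binding was recorded at 25° C in HBSTE, with dissociation monitored for 300s.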

ADI-26921 IgG [1] = biological target: T2, ADI-26921 IgG; test: SPR Carterra avidity, yeast anti-ID
T2 construct: anti-CD3 IgG
Procedure, shortened: as §1

ADI-26912 = biological target: T3, ADI-26912; test: SPR Carterra avidity, yeast anti-ID
T3 construct: anti-CD3 antibody made in CHO cells, captured by anti-human Fc
Procedure, shortened: as §1

ADI-76362 = biological target: T4, ADI-76362; test: SPR Carterra avidity, yeast anti-ID
T4 construct: anti-CD3 antibody made in CHO cells, captured by anti-human Fc
Procedure, shortened: as §1

ADI-70327 = biological target: T5, ADI-70327; test: SPR Carterra avidity, yeast anti-ID
T5 construct: anti-CD3 antibody made in CHO cells, captured by anti-human Fc
Procedure, shortened: as §1

ADI-26943 = biological target: T6, ADI-26943; test: SPR Carterra avidity, CHO anti-ID, *koff limit
T6 construct: anti-CD3 antibody made in CHO cells, captured by anti-human Fc
Description: (§2) Kinetic analysis was conducted at 25° C. in an HBSTE running buffer system (Carterra Cat #3630) using a Carterra LSA (Carterra USA, Salt Lake City, UT). The sample compartment was maintained at 20° C. for the duration of each experiment.
(§3) For antibody capture experiments, a goat anti-human Fc antibody (Jackson ImmunoResearch) was covalently coupled to an HC30M sensor chip surface via standard amine coupling (1:1 EDC:NHS) and then blocked with ethanolamine (1.0 M, pH 8.5). Covalent coupling steps were performed in 25 mM MES buffer (Carterra, Cat #3625) plus 0.05% Tween20. The anti-CD3 antibodies (100 nM in running buffer) were flowed over discrete regions of interest on the chip surface for 5 minutes. […] Dissociation of the anti-idiotype antibodies was monitored for 300s. Several blank buffer samples were injected over the entire chip surface at the start of each non-regenerative kinetic cycle. The preceding blank buffer injection was used for blank surface subtraction. At the end of each non-regenerative kinetic cycle, all surfaces were regenerated via two 30s injections of 10 mM glycine, pH 1.7.
(§4) For data processing and fitting, sensorgrams were double reference subtracted with a baseline drift correction of 4 RU. Sensorgrams were y-aligned and baseline corrected, filtered and cropped to include only the association and dissociation steps. Data was fitted to a 1:1 binding model using Carterra Kinetics Data Analysis software version 1.7.1.3055.

ADI-76361 = biological target: T7, ADI-76361; test: SPR Carterra avidity, CHO anti-ID, *koff limit
T7 construct: anti-CD3 antibody made in CHO cells, captured by anti-human Fc
Description: as §2, §3, §4

CTL-62223 = biological target: T8, CTL-62223; test: SPR Carterra avidity, CHO anti-ID, *koff limit
T8 construct: also called mosunetuzumab
Description: as §2, §3, §4

ADI-67445 = biological target: T9, ADI-67445; test: SPR Carterra avidity, CHO anti-ID, *koff limit
T9 construct: anti-CD3 antibody made in CHO cells, captured by anti-human Fc
Description: as §2, §3, §4

ADI-50024 = biological target: T10, ADI-50024; test: SPR Carterra avidity, CHO anti-ID, *koff limit
T10 construct: anti-CD3 antibody made in CHO cells, captured by anti-human Fc
Description: as §2, §3, §4

ADI-26920 IgG = biological target: T11, ADI-26920 IgG; test: SPR Carterra avidity, CHO anti-ID, *koff limit
T11 construct: anti-CD3 IgG
Description: as §2, §3, §4

ADI-67447 = biological target: T12, ADI-67447; test: SPR Carterra avidity, CHO anti-ID, *koff limit
T12 construct: anti-CD3 antibody made in CHO cells, captured by anti-human Fc
Description: as §2, §3, §4

ADI-26919 = biological target: T13, ADI-26919; test: SPR Carterra avidity, CHO anti-ID, *koff limit
T13 construct: anti-CD3 antibody made in CHO cells, captured by anti-human Fc
Description: as §2, §3, §4

ADI-26921 IgG [2] = biological target: T2, ADI-26921 IgG; test: SPR Carterra avidity, CHO anti-ID, *koff limit
Description: as §2, §3, §4

ADI-76357 = biological target: T14, ADI-76357; test: SPR Carterra avidity, CHO anti-ID, *koff limit
T14 construct: anti-CD3 antibody made in CHO cells, captured by anti-human Fc
Description: as §2, §3, §4

ADI-26924 = biological target: T15, ADI-26924; test: SPR Carterra avidity, CHO anti-ID, *koff limit
T15 construct: anti-CD3 antibody made in CHO cells, captured by anti-human Fc
Description: as §2, §3, §4

ADI-74967 = biological target: T16, ADI-74967; test: SPR Carterra avidity, CHO anti-ID, *koff limit
T16 construct: pH-dependent anti-CD3 antibody made in CHO cells
Description: as §2, §3, §4

ADI-26909 = biological target: T17, ADI-26909; test: SPR Carterra avidity, CHO anti-ID, *koff limit
T17 construct: anti-CD3 antibody made in CHO cells, captured by anti-human Fc
Description: as §2, §3, §4

ADI-26941 IgG = biological target: T18, ADI-26941 IgG; test: BLI; tip ADI-34134 IgG, solution anti-CD3 IgG
T18 construct: anti-CD3 IgG
Description: (§5) ForteBio affinity measurements were performed generally as previously described (Estep et al., MAbs. 2013 5(2):270-8). Briefly, ForteBio affinity measurements were performed by loading antibody IgG or Fabs on-line onto AHC sensors. Sensors were equilibrated off-line in assay buffer for 30 minutes and then monitored on-line for 60 seconds for baseline establishment. For avid binding measurement, sensors with loaded antibodies were exposed to IgG or Fab solutions for 3 minutes, afterwards they were transferred to assay buffer for 3 minutes for off-rate measurement. Kinetics data were fit using a 1:1 binding model in the data analysis software provided by ForteBio to obtain equilibrium dissociation constant (KD=koff/kₒₙ) values. In each column, tip-immobilized antibodies are listed first and solution antibodies second.
(§6) In each column, tip-immobilized antibodies are listed first and solution antibodies second.

ADI-26916 IgG [3] = biological target: T19, ADI-26916 IgG; test: BLI; tip ADI-34134 IgG, solution anti-CD3 IgG
T19 construct: anti-CD3 IgG
Description: as §5, §6

ADI-26913 IgG [4] = biological target: T20, ADI-26913 IgG; test: BLI; tip ADI-34134 IgG, solution anti-CD3 IgG
T20 construct: anti-CD3 IgG
Description: as §5, §6

ADI-22523 IgG = biological target: T21, ADI-22523 IgG; test: BLI; tip ADI-34134 IgG, solution anti-CD3 IgG
T21 construct: anti-CD3 IgG
Description: as §5, §6

CTL-19613 IgG = test: BLI; tip ADI-34134 IgG, solution anti-CD3 IgG
Description: as §5, §6

ADI-26927 IgG = biological target: T22, ADI-26927 IgG; test: BLI; tip ADI-34134 IgG, solution anti-CD3 IgG
T22 construct: anti-CD3 IgG
Description: as §5, §6

ADI-26928 IgG = biological target: T23, ADI-26928 IgG; test: BLI; tip ADI-34134 IgG, solution anti-CD3 IgG
T23 construct: anti-CD3 IgG
Description: as §5, §6

ADI-26921 IgG [5] = biological target: T2, ADI-26921 IgG; test: BLI; tip ADI-34134 IgG, solution anti-CD3 IgG
Description: as §5, §6

ADI-26954 IgG = biological target: T24, ADI-26954 IgG; test: BLI; tip ADI-34134 IgG, solution anti-CD3 IgG
T24 construct: anti-CD3 IgG
Description: as §5, §6

ADI-26906 IgG = biological target: T25, ADI-26906 IgG; test: BLI; tip ADI-34134 IgG, solution anti-CD3 IgG
T25 construct: anti-CD3 IgG
Description: as §5, §6

ADI-26916 IgG [6] = biological target: T19, ADI-26916 IgG; test: SPR Carterra avidity, yeast anti-ID
Procedure, shortened: as §1

ADI-74968 = biological target: T26, ADI-74968; test: SPR Carterra avidity, yeast anti-ID
T26 construct: pH-dependent anti-CD3 antibody made in CHO cells
Procedure, shortened: as §1

ADI-26913 IgG [7] = biological target: T20, ADI-26913 IgG; test: SPR Carterra avidity, CHO anti-ID, *koff limit
Description: as §2, §3, §4

ADI-26916 IgG [8] = biological target: T19, ADI-26916 IgG; test: BLI; tip ADI-34145 IgG, solution anti-CD3 IgG
Description: as §5, §6

T2 sequence (VH, as listed by the source limits assumed, chain 1 of 2): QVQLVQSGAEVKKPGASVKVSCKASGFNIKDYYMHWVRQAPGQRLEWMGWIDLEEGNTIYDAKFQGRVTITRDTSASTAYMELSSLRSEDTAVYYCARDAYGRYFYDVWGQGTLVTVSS
T2 sequence (VL, as listed by the source limits assumed, chain 2 of 2): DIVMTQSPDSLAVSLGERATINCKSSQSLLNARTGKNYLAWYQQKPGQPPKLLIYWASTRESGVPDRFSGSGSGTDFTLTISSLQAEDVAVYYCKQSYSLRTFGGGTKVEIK
T19 sequence (VH, as listed by the source, chain 1 of 2): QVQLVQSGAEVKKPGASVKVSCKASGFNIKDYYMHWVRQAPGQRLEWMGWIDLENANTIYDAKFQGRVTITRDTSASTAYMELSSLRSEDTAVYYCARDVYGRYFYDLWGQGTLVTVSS
T19 sequence (VL, as listed by the source, chain 2 of 2): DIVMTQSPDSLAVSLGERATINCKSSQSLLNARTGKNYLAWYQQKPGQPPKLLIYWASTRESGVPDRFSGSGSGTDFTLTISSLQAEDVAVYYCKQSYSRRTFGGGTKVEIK
T20 sequence (VH, as listed by the source limits assumed, chain 1 of 2): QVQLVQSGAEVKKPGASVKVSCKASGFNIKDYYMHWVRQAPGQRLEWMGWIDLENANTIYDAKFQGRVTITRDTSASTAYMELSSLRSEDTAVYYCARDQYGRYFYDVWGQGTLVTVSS
T9 sequence (VH, as listed by the source limits assumed, chain 1 of 2): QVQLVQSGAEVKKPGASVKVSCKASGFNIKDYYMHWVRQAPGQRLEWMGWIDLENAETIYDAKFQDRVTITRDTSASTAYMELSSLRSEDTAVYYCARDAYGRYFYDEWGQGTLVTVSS
T8 sequence (VH, as listed by the source, chain 1 of 2): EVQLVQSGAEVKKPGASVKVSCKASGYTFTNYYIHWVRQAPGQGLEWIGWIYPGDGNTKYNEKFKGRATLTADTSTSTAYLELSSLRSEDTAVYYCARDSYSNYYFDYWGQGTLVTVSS
T8 sequence (VL, as listed by the source, chain 2 of 2): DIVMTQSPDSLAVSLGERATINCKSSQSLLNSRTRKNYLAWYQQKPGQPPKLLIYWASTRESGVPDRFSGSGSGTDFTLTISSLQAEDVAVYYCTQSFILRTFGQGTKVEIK
T23 sequence (VH, as listed by the source limits assumed, chain 1 of 2): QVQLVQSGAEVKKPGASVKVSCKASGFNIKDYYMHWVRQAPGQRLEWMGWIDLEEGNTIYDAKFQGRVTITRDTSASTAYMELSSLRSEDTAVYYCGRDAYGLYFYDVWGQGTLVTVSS
T24 sequence (VH, as listed by the source limits assumed, chain 1 of 2): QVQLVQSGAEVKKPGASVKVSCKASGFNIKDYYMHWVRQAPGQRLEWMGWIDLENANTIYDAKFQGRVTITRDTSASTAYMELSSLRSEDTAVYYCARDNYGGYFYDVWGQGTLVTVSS
T24 sequence (VL, as listed by the source limits assumed, chain 2 of 2): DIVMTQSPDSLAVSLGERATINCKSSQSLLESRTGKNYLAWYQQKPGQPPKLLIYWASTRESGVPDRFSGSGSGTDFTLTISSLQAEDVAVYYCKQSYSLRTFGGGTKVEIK
T22 sequence (VH, as listed by the source limits assumed, chain 1 of 2): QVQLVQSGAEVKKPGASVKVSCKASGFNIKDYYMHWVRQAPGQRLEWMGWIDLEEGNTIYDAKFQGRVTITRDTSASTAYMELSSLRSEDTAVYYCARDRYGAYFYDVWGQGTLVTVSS
T5 sequence (VH, as listed by the source limits assumed, chain 1 of 2): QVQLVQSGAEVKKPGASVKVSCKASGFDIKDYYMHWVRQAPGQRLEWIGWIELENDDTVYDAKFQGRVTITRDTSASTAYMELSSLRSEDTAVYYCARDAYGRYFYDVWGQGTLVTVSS
T5 sequence (VL, as listed by the source limits assumed, chain 2 of 2): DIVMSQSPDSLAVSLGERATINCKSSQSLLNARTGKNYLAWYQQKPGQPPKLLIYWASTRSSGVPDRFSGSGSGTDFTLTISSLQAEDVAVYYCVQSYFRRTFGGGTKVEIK
T6 sequence (VH, as listed by the source, chain 1 of 2): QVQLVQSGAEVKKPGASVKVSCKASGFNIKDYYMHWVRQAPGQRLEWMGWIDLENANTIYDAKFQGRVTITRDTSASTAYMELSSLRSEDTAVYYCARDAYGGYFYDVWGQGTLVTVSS
T6 sequence (VL, as listed by the source, chain 2 of 2): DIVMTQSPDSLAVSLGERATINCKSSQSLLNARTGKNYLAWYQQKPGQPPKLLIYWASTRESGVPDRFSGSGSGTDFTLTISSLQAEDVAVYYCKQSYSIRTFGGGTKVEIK
T15 sequence (VH, as listed by the source, chain 1 of 2): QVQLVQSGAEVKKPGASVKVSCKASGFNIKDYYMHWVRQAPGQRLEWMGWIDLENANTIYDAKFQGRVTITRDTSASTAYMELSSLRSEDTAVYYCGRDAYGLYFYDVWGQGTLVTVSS
T7 sequence (VH, as listed by the source, chain 1 of 2): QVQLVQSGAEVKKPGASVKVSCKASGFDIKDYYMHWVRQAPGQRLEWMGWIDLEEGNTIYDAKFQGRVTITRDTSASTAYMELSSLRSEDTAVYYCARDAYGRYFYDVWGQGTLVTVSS
T10 sequence (VH, as listed by the source limits assumed, chain 1 of 2): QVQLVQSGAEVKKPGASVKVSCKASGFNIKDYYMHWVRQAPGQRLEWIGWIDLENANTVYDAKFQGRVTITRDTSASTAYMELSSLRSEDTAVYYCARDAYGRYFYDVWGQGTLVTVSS
T4 sequence (VH, as listed by the source, chain 1 of 2): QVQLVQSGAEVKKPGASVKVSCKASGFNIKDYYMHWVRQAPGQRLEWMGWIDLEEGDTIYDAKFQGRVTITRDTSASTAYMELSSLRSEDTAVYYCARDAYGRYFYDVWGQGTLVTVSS
T21 sequence (VH, as listed by the source limits assumed, chain 1 of 2): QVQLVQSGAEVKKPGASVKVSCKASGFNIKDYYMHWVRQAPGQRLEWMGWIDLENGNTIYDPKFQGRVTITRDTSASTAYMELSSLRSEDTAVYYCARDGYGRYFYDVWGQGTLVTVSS
T21 sequence (VL, as listed by the source limits assumed, chain 2 of 2): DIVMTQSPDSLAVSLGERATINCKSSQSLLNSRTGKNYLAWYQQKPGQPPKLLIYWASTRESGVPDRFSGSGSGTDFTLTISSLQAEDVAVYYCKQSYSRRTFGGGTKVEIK
T3 sequence (VH, as listed by the source, chain 1 of 2): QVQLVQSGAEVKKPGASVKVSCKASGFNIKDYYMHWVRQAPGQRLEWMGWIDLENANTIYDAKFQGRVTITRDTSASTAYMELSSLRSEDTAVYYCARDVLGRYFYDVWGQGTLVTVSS
T17 sequence (VH, as listed by the source limits assumed, chain 1 of 2): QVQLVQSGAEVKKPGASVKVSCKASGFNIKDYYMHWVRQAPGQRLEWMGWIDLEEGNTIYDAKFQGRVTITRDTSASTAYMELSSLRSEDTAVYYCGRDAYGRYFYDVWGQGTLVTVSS
T12 sequence (VH, as listed by the source limits assumed, chain 1 of 2): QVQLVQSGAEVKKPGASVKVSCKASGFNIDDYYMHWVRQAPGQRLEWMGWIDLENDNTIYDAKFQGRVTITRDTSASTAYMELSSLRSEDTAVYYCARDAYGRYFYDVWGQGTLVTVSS

B1: ADI-34134 IgG (antibody, V domains shown)
VH: QVQLVQSGAEVKKPGSSVKVSCKASGGTFSSYAISWVRQAPGQGLEWMGGIIPIFGTANYAQKFQGRVTITADESTSTAYMELSSLRSEDTAVYYCARGAPNYYGSGGYDDGWFDPWGQGTLVTVSS
VL: EIVLTQSPGTLSLSPGERATLSCRASQSVSSDYLAWYQQKPGQAPRLLIYGASSRATGIPDRFSGSGSGTDFTLTISRLEPEDFAVYYCQQFGRVPTFGGGTKVEIK
Kd (ADI-70330): 13 nM
Kd (ADI-26921 IgG [1]): 3.6 nM
Kd (ADI-26912): 34 nM
Kd (ADI-76362): 6.3 nM
Kd (ADI-70327): 14 nM
Kd (ADI-26943): 0.1 nM
Kd (ADI-76361): 0.094 nM
Kd (CTL-62223): 0.19 nM
Kd (ADI-67445): 0.13 nM
Kd (ADI-50024): 0.26 nM
Kd (ADI-26920 IgG): 0.11 nM
Kd (ADI-67447): 0.12 nM
Kd (ADI-26919): 0.11 nM
Kd (ADI-26921 IgG [2]): 0.11 nM
Kd (ADI-76357): 0.088 nM
Kd (ADI-26924): 0.1 nM
Kd (ADI-74967): 0.11 nM
Kd (ADI-26909): 0.11 nM
Kd (ADI-26941 IgG): 1.13 nM
Kd (ADI-26916 IgG [3]): 0.57 nM
Kd (ADI-26913 IgG [4]): 0.77 nM
Kd (ADI-22523 IgG): 0.46 nM
Kd (CTL-19613 IgG): 9.21 nM
Kd (ADI-26927 IgG): 0.45 nM
Kd (ADI-26928 IgG): 0.46 nM
Kd (ADI-26921 IgG [5]): 0.85 nM
Kd (ADI-26954 IgG): 1.04 nM
Kd (ADI-26906 IgG): 0.43 nM

B2: ADI-34145 IgG (antibody, V domains shown)
VH: EVQLLESGGGLVQPGGSLRLSCAASGFTFSSYAMSWVRQAPGKGLEWVSTISGSGGSTYYADSVKGRFTISRDNSKNTLYLQMNSLRAEDTAVYYCARLGGRRGSGSSYYYYYGMDVWGQGTTVTVSS
VL: not shown
notes: anti-ID IgG
Kd (ADI-26916 IgG [6]): 20 nM
Kd (ADI-74968): 67 nM
Kd (ADI-26913 IgG [7]): 4.4 nM
Kd (ADI-26916 IgG [8]): 48 nM
